Values quoted from earlier work as cited in paper PMC7302117.

Target: ELK1 (Homo sapiens) (UniProt P19419)
Sequence of UniProt P19419 (P19419 whole entry): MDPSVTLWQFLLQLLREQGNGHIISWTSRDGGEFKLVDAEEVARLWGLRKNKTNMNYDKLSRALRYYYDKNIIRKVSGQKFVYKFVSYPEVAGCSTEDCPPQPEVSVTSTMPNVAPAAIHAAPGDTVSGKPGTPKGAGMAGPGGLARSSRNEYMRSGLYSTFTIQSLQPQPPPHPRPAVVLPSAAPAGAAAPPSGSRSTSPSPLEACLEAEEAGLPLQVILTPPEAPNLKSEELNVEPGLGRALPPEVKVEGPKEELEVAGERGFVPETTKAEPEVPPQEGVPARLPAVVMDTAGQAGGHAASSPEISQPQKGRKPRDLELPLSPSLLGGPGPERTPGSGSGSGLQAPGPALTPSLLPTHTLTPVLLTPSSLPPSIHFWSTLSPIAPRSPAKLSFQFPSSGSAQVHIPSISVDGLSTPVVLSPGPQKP

In the case of “Androgen receptor A/B domain (from UniProt P10275)”, the Kd is given as 20 nM.
